Test results taken from patent US20170281765A1 (SORRENTO THERAPEUTICS, published 2017).

B1: anti-PD-L1 antibody H6 (antibody, V domains shown)
VH: QMQLVQSGAEVKKPGSSVKVSCKASGGTFSSYAISWVRQAPGQGLEWMGGIIPIFGTANYAQKFQGRVTITADESTSTAYMELSSLRSEDTAVYYCARGNIVATITPLDYWGQGTLVTVSS
VL: SYELMQPPSVSVAPGKTATIACGGENIGRKTVHWYQQKPGQAPVLVIYYDSDRPSGIPERFSGSNSGNTATLTISRVEAGDEADYYCQVWDSSSDHRIFGGGTKLTVL
notes: Fully human antibody of an IgG class
B2: anti-PD-L1 antibody H10 (antibody, V domains shown)
VH: EVQLVQSGGGLVQPGGSLRLSCAASGFTFSSYSMNWVRQAPGKGLEWVSYISSSSSTIYYADSVKGRFTISRDNAKNSLYLQMNSLRDEDTAVYYCARGDYYYGMDVWGQGTTVTVSS
VL: EIVLTQSPSSLSASIGDRVTLTCRASQSIRRFLNWYQQKPGKAPELLIYTASSLQSGVPSRFSGSGSGTDFTLTINSLQPEDFATYYCQQSYAVSPYTFGQGTKVEIR
notes: as for B1

Target: T1, human PD-L1 expressed on the cell surface (human, UniProt Q9NZQ7 19-290)
T1 construct: whole, on cells; also called CHO-PD-L1
T1 sequence (Q9NZQ7 19-290): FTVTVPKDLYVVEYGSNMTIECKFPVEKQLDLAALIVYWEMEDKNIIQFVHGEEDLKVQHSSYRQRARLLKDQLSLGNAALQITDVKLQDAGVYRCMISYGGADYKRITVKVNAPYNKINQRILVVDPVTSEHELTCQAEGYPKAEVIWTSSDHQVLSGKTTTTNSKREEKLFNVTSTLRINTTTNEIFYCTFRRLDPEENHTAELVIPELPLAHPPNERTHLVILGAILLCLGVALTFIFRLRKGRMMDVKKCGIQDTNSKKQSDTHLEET
Assay: flow cytometry on anti-CD3 activated human lymphocytes (CD19 negative gate), PE anti-human Ig detection
Description: This example provides a characterization of the disclosed anti-PD-L1 antibodies binding to human PD-L1 expressed on human lymphocytes. Human peripheral blood mononuclear cells were activated by culture with anti-CD3 for three days to promote expression of PD-L1. Binding was assessed by adding serial dilutions of the antibody to the activated lymphocytes. After washing, binding was detected by staining with a phycoerythrin labeled anti-human Ig reagent followed by analysis using a FACS Aria (Becton Dickinson, San Jose, Calif.). Since the anti-human Ig reagent reacts with immunoglobulin on B lymphocytes the cells were co-staining with an anti-human CD19 APC-Cy5 reagent.

Row | Binder | EC50 [nM]
1 | B1 | ~0.1
2 | B2 | ~0.1
